Tests used:
FtFur WT [1] = target: T1, FtFur WT (Francisella tularensis FSC198 (100% …, UniProt Q5NIN6 1-140)); assay: EMSA; settings: protein: recombinant; tags: none; chain copies: 4; label: 32P 5' end (EMSA)
FtFur WT [2] = target: T1, FtFur WT; assay: EMSA; 10 uM Mn2+; main species one dimer bound; settings: protein: recombinant; tags: none; chain copies: 4; label: 32P 5' end (EMSA)
FtFur WT [3] = target: T1, FtFur WT; assay: SEC-MALLS-RI; settings: protein: recombinant; tags: none; chain copies: 4; label: none (SEC-MALLS, SAXS)

B1: PfigAL (PfigA, 43 bp) (dsDNA)
DNA 1: GGGCTACATGATAATGATAACGAATATCATTATCGTTTATGGG
DNA 2: CCCATAAACGATAATGATATTCGTTATCATTATCATGTAGCCC
Kd (FtFur WT [1]): ~5 nM

B2: PfigAS (dsDNA)
DNA 1: GGGGATAATGATAACGAATATCATTATCGGG
DNA 2: CCCGATAATGATATTCGTTATCATTATCCCC
binding result (FtFur WT [2]): binds

B3: FurBox (EcFurBox) (dsDNA)
DNA 1: GGGGATAATGATAATCATTATCGGG
DNA 2: CCCGATAATGATTATCATTATCCCC
binding result (FtFur WT [3]): binds

— publication PMC6123631
